From patent US7422861B2, “Oligonucleotide transfection screening method” (priority 2000, dated 2008)

System: SKOV3 (ovarian carcinoma) cells
Experiment: Apoptosis assay, annexin V and PI staining followed by FACS analysis (FIG. 1B)
Format: cell-based
Conditions: SKOV3 cells from the same transfections
Method: As a measure of cellular toxicity of the transfection agents, cells from the same transfections were stained with annexin V and PI, followed by FACS analysis (FIG. 1B). The fraction of cells positive for Annexin V, or for Annexin V and PI, are those in early or late stage apoptosis, respectively.
Apoptosis Assay. Following transfection with antisense oligonucleotides and various transfection agents, cells were gently removed from plates using 0.05% trypsin and 2 mM EDTA, washed in a buffer containing 10 mM Hepes pH7.2, 140 mM NaCl, 5 mM CaCl2, and stained with Propidium iodide at a final concentration of 1 μg/ml and Annexin-V-FLUOS (Roche Molecular Biochemicals). Cells were then analyzed for staining with each marker using a Becton Dickinson FACScan.

| SMILES | Staining with annexin V or PI (apoptosis) |
| --- | --- |
| COc1ccc(CCN(CC(N)=O)C(=O)CN(CCc2ccc(OC)cc2)C(=O)CN(CCN)C(=O)CN(CCc2ccc(OC)cc2)C(=O)CN(CCc2ccc(OC)cc2)C(=O)CN(CCN)C(=O)CN(CCc2ccc(OC)cc2)C(=O)CN(CCc2ccc(OC)cc2)C(=O)CN(CCN)C(=O)CCNC(=O)O[C@H]2CC[C@@]3(C)C(=CC[C@H]4[C@@H]5CC[C@H]([C@H](C)CCCC(C)C)[C@@]5(C)CC[C@@H]43)C2)cc1 [Cholesteroid 1] | negligible staining |
| CCCCCCCCCCCCCC(=O)OCC(COP(=O)(O)OCCNCC(=O)N(CCN)CC(=O)N(CCc1ccc(OC)cc1)CC(=O)N(CCc1ccc(OC)cc1)CC(=O)N(CCN)CC(=O)N(CCc1ccc(OC)cc1)CC(=O)N(CCc1ccc(OC)cc1)CC(=O)N(CCN)CC(=O)N(CCc1ccc(OC)cc1)CC(=O)N(CCc1ccc(OC)cc1)CC(N)=O)OC(=O)CCCCCCCCCCCCC (centres unmarked) [Lipitoid 1] | negligible staining |
